In paper PMC12210968:

Target: Human plasminogen (PLG) protein (human) (UniProt P00747)
Assay: SPR; BIAcore system; PLG and EV-A71 6356 viral particles; the methods tell one set-up (PLG coated, virus diluted) for EnSpire or BIAcore

## Enterovirus A71 (EV-A71) viral particles, strain 6356 (human strain, C2 genotype) (complex)
  Kd: 1.96 nM
  koff: 5.63e-05 s⁻¹
  kon: 28800 M⁻¹ s⁻¹
